Data as given in IntAct's records for PubMed 16630557.

B1: mRNA-decapping enzyme subunit 1 (Saccharomyces cerevisiae), Q12517 (parent)
chain: MTGAATAAENSATQLEFYRKALNFNVIGRYDPKIKQLLFHTPHASLYKWDFKKDEWNKLEYQGVLAIYLRDVSQNTNLLPVSPQEVDIFDSQNGSNNIQVNNGSDNSNRNSSGNGNSYKSNDSLTYNCGKTLSGKDIYNYGLIILNRINPDNFSMGIVPNSVVNKRKVFNAEEDTLNPLECMGVEVKDELVIIKNLKHEVYGIWIHTVSDRQNIYELIKYLLENEPKDSFA

Variants of: B1
Conditions: with erf3_yeast SUP35, P05453
erf3_yeast SUP35, P05453, sequence (P05453 whole entry): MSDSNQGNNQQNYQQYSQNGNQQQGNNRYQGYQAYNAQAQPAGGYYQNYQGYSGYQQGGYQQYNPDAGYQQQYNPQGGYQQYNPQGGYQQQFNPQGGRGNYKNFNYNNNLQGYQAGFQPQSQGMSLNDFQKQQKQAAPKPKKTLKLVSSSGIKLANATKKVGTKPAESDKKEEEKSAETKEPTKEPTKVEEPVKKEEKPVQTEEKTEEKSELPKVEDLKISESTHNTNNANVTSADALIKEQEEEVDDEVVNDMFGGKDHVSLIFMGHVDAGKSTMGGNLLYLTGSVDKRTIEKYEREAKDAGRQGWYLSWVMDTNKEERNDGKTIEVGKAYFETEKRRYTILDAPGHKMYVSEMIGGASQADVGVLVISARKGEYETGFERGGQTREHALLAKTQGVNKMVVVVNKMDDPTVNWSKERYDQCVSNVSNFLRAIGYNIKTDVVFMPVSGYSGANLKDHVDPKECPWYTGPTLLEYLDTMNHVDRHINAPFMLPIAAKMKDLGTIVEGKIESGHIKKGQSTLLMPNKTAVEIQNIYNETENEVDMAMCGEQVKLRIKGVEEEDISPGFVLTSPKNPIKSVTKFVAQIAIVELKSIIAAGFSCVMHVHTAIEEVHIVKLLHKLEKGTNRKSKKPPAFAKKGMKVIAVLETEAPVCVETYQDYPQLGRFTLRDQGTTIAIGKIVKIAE

| Variant | effect of a mutation on the interaction |
| --- | --- |
| L38P;S45P | decreasing interaction |
| S45P | decreasing interaction |
